Laboratory results reported in the supplement of paper PMC9233669.
This sample holds only a part of the variants without activity.

Columns and labels:
biotinyl-Leu-oxazolone = assay: self-aminoacylation, catalytic enhancement (BLO) (fold over background); higher = more active; k-Seq, kA / k0A0; sequences stand for … in GGGAAUGGAUCCACAUCUACGAAUUC…UUCACUGCAGACUUGACGAAGCUG
Procedure, shortened: (§1)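 The uncatalyzed rate is the low-activity peak of a bimodal Gaussian fit, and catalytic enhancement is median kA divided by it. The kA values came from pseudo-first-order fits, with 1000 bootstraps, of per-sequence fraction reacted measured by streptavidin capture, triplicate qPCR and Illumina sequencing. Mutagenized RNA pools with a 21-nt variable region (0.43 μM) were reacted with each biotinyl-aminoacyl-oxazolone at 2–1250 μM in 50 μL HEPES/NaCl/KCl/MgCl2/CaCl2 buffer with 5% acetonitrile, pH 6.9–7.0, for 90 minutes at room temperature.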

biotinyl-Trp-oxazolone = assay: self-aminoacylation, catalytic enhancement (BWO) (fold over background); higher = more active; k-Seq, kA / k0A0; sequences stand for … in GGGAAUGGAUCCACAUCUACGAAUUC…UUCACUGCAGACUUGACGAAGCUG
Procedure, shortened: as §1

biotinyl-Phe-oxazolone = assay: self-aminoacylation, catalytic enhancement (BFO) (fold over background); higher = more active; k-Seq, kA / k0A0; sequences stand for … in GGGAAUGGAUCCACAUCUACGAAUUC…UUCACUGCAGACUUGACGAAGCUG
Procedure, shortened: as §1

biotinyl-Val-oxazolone = assay: self-aminoacylation, catalytic enhancement (BVO) (fold over background); higher = more active; k-Seq, kA / k0A0; sequences stand for … in GGGAAUGGAUCCACAUCUACGAAUUC…UUCACUGCAGACUUGACGAAGCUG
Procedure, shortened: as §1

biotinyl-Ile-oxazolone = assay: self-aminoacylation, catalytic enhancement (BIO) (fold over background); higher = more active; k-Seq, kA / k0A0; sequences stand for … in GGGAAUGGAUCCACAUCUACGAAUUC…UUCACUGCAGACUUGACGAAGCUG
Procedure, shortened: as §1

biotinyl-Met-oxazolone = assay: self-aminoacylation, catalytic enhancement (BMO) (fold over background); higher = more active; k-Seq, kA / k0A0; sequences stand for … in GGGAAUGGAUCCACAUCUACGAAUUC…UUCACUGCAGACUUGACGAAGCUG
Procedure, shortened: as §1

Sequence | self-aminoacylation (biotinyl-Leu-oxazolone) | self-aminoacylation (biotinyl-Trp-oxazolone) | self-aminoacylation (biotinyl-Phe-oxazolone) | self-aminoacylation (biotinyl-Val-oxazolone) | self-aminoacylation (biotinyl-Ile-oxazolone) | self-aminoacylation (biotinyl-Met-oxazolone)
AUUCACCUAGGCCAUCGUGUG [Fam2.2 aminoacylation ribozyme variant] | 0.946 | 0.88 | 2.6 | 0.966 | 0.998 | 0.898
ACUCACCUAGGUCAUUGGGUG [Fam2.2 aminoacylation ribozyme variant] | 2.91 | 3.78 | 14.3 | 2.56 | 2.31 | 2.35
ACACACCUAGGUCAUCGGGUG [Fam2.2 aminoacylation ribozyme variant] | 3.61 | 4.91 | 19 | 3.19 | 2.98 | 3.51
AUUACACUGGUCAUCGUGUGA [Fam2.1 aminoacylation ribozyme variant] | 2.8 | 3 | 13.8 | 1.56 | 1.75 | 3.15
AUUACCCUGGUCAUCGAGUCU [Fam2.1 aminoacylation ribozyme variant] | 0.712 | 0.846 | 0.56 | 0.901 | 0.697 | 0.784
AUUCCCCUGGUCAUAGAGUGA [Fam2.1 aminoacylation ribozyme variant] | 10.1 | 13.1 | 70.9 | 5.89 | 5.4 | 10
AAGUUUGCUAAUAGUGGCAAG [Fam3.1 aminoacylation ribozyme variant] | 0.692 | 0.773 | 0.894 | 0.739 | 0.737 | 0.734
AUUCAACUAGGUCAUCGGUUG [Fam2.2 aminoacylation ribozyme variant] | 0.889 | 0.843 | 0.677 | 0.963 | 0.952 | 0.933
AUUAACCUCGGUCAUCGGGUG [Fam2.2 aminoacylation ribozyme variant] | 5.54 | 3.74 | 28.5 | 3.76 | 3.13 | 5.08
AAGUUUUCUAAUAGUCGCAGG [Fam3.1 aminoacylation ribozyme variant] | 1.55 | 2.19 | 3.74 | 1.52 | 1.59 | 1.6
AUUACCCGGGUUAUCGAGUGA [Fam2.1 aminoacylation ribozyme variant] | 14.4 | 14.6 | 94.5 | 5.94 | 5.68 | 13.3
AUUACCCUGCUCAUCCAGUGA [Fam2.1 aminoacylation ribozyme variant] | 6.26 | 7.43 | 34.2 | 3.34 | 3.06 | 5.54
AUUACCCUCGUCAUCGAGUAA [Fam2.1 aminoacylation ribozyme variant] | 0.985 | 0.978 | 0.716 | 1.02 | 0.904 | 0.866
CCACACUUCGAGCAAUCAGUC [Fam1B.1 aminoacylation ribozyme variant] | 0.52 | 0.695 | 0.892 | 0.625 | 0.666 | 0.488
AUUCCCCUGGCCAUCGAGUGA [Fam2.1 aminoacylation ribozyme variant] | 8.45 | 6.48 | 46.6 | 4.87 | 3.34 | 6.17
AUUCACCUAUGUCAUCGCGUG [Fam2.2 aminoacylation ribozyme variant] | 10.4 | 7.34 | 65.3 | 4.89 | 4.86 | 8.26
AUUCACCUAGGUCAUCCGCUG [Fam2.2 aminoacylation ribozyme variant] | 2.54 | 1.25 | 9.5 | 1.89 | 2.23 | 1.73
AGGUUUGCUAUUAGUCGCAAG [Fam3.1 aminoacylation ribozyme variant] | 1.49 | 1.08 | 3.21 | 1.17 | 1.28 | 1.17
CUACUUCAAACAAUCGGGCUU [Fam1A.1 aminoacylation ribozyme variant] | 0.955 | 1.3 | 1.14 | 1.32 | 1.55 | 1.12
AUUGGCCUAGGUCAUCGGGUG [Fam2.2 aminoacylation ribozyme variant] | 48 | 27.4 | 277 | 14.9 | 18.3 | 36.9
AUUCUCCUAGGUCAUCGGAUG [Fam2.2 aminoacylation ribozyme variant] | 0.907 | 0.795 | 0.611 | 1.1 | 1.03 | 0.975
CUUCACCUAGGUCAGCGGGUG [Fam2.2 aminoacylation ribozyme variant] | 4.96 | 4.01 | 9.81 | 3.88 | 3.62 | 3.27
CCUCACUUCAAGGAAUCGGUC [Fam1B.1 aminoacylation ribozyme variant] | 0.936 | 4.27 | 6.28 | 0.869 | 0.76 | 0.946
CUACUUCAAACCAUCGGGCUG [Fam1A.1 aminoacylation ribozyme variant] | 1.73 | 1.77 | 0.939 | 1.92 | 1.97 | 2.16
AUUCAGCUAGGUGAUCGGGUG [Fam2.2 aminoacylation ribozyme variant] | 5.32 | 4.6 | 25.3 | 4.04 | 3.84 | 4.52
AUUACCCAGGUCAUCGAUUGA [Fam2.1 aminoacylation ribozyme variant] | 0.826 | 0.511 | 0.642 | 0.759 | 0.872 | 0.825

Sequence | self-aminoacylation (biotinyl-Leu-oxazolone) | self-aminoacylation (biotinyl-Trp-oxazolone) | self-aminoacylation (biotinyl-Phe-oxazolone) | self-aminoacylation (biotinyl-Val-oxazolone) | self-aminoacylation (biotinyl-Ile-oxazolone) | self-aminoacylation (biotinyl-Met-oxazolone)
AAAUUUGCUAAUAGUCGCAAA [Fam3.1 aminoacylation ribozyme variant] | 3.17 | 3.82 | 2.95 | 2.41 | 3.32 | 3.08
AUUACCCCGGUCAUCUAGUGA [Fam2.1 aminoacylation ribozyme variant] | 8.24 | 8.95 | 47.1 | 3.96 | 4.31 | 7.8
CUACUUCAAACAUUCGGUCUG [Fam1A.1 aminoacylation ribozyme variant] | 0.892 | 0.904 | 0.828 | 1.01 | 0.994 | 0.904
CCACACUGCAGGCAAUCGGUC [Fam1B.1 aminoacylation ribozyme variant] | 1.57 | 1.38 | 5.92 | 2.17 | 1.44 | 1.76
GUACUUCAAACUAUCGGUCUG [Fam1A.1 aminoacylation ribozyme variant] | 1.14 | 1.46 | 1.78 | 1.26 | 1.38 | 1.29
AUUACCCAGAUCAUCGAGUGA [Fam2.1 aminoacylation ribozyme variant] | 5 | 7.37 | 15.2 | 2.99 | 3.1 | 5.55
AUCCACCUAGGUCAUCAGGUG [Fam2.2 aminoacylation ribozyme variant] | 1.82 | 2.64 | 4.11 | 1.74 | 1.51 | 1.74
AAGUUUGCUAAACGUCGCAAG [Fam3.1 aminoacylation ribozyme variant] | 0.537 | 0.603 | 0.887 | 0.542 | 0.739 | 0.608
AUACACCUAGGUCAUCGGUUG [Fam2.2 aminoacylation ribozyme variant] | 1.31 | 1.54 | 3.92 | 1.24 | 1.1 | 1.44
CUACUUCAAACAAACGGUCUG [Fam1A.1 aminoacylation ribozyme variant] | 0.666 | 0.615 | 0.894 | 0.812 | 0.77 | 0.664
AUUCACCUGGAUCAUCGGGUG [Fam2.2 aminoacylation ribozyme variant] | 3.12 | 3.31 | 15.1 | 3.08 | 2.55 | 2.39
AUUCACCUAGGGCAUCGGCUG [Fam2.2 aminoacylation ribozyme variant] | 2.42 | 1.64 | 7.35 | 2.01 | 1.75 | 2.03
UAGUUUGCUAAUAGUGGCAAG [Fam3.1 aminoacylation ribozyme variant] | 0.753 | 0.543 | 1.63 | 0.688 | 0.819 | 0.891
CCACACUUCAUGCAAUGGGUC [Fam1B.1 aminoacylation ribozyme variant] | 0.704 | 0.569 | 0.544 | 0.712 | 0.751 | 0.738
AUUAACCUUGUCAUCGAGUGA [Fam2.1 aminoacylation ribozyme variant] | 6.72 | 7.59 | 17.6 | 3.39 | 3.25 | 6.16
CCAUACUACAAGCAAUCGGUC [Fam1B.1 aminoacylation ribozyme variant] | 0.772 | 0.655 | 0.942 | 0.779 | 0.884 | 0.696
CCACCCUUCAAGCAAUCGGUC [Fam1B.1 aminoacylation ribozyme variant] | 1.16 | 11.3 | 19.9 | 1.32 | 1.05 | 0.936
AUUCACCUAGGUCAUCGGGGA [Fam2.2 aminoacylation ribozyme variant] | 26 | 15.5 | 123 | 9.77 | 11.4 | 19.8
AAGUAUGUUAAUAGUCGCAAG [Fam3.1 aminoacylation ribozyme variant] | 1.44 | 1.38 | 1.49 | 1.24 | 1.44 | 1.4
CUACUUGAAACAACCGGUCUG [Fam1A.1 aminoacylation ribozyme variant] | 0.805 | 1.24 | 0.529 | 1.01 | 1.07 | 1.18
CUGCUUCAAACGAUCGGUCUG [Fam1A.1 aminoacylation ribozyme variant] | 1.11 | 3.49 | 2.63 | 0.803 | 0.727 | 0.991
UAGUUUGCUAAUAGCCGCAAG [Fam3.1 aminoacylation ribozyme variant] | 1.25 | 1.88 | 2.71 | 1.05 | 1.22 | 0.885
CUACUUCAUACAUUCGGUCUG [Fam1A.1 aminoacylation ribozyme variant] | 1.04 | 0.96 | 1.05 | 0.965 | 0.955 | 0.894
AUUCACCGAGGUCAUCGGGUG [Fam2.2 aminoacylation ribozyme variant] | 14.2 | 9.63 | 87 | 6.85 | 6.19 | 11.3
AUUCACCUAGUUCAGCGGGUG [Fam2.2 aminoacylation ribozyme variant] | 3.34 | 2.62 | 15.9 | 2.28 | 2.07 | 2.76
